Source: publication PMC10163058

Assays:
[1] = target: paired immunoglobulin-like receptor B (PirB), expressed on CHO cells (mouse) (UniProt P97484)
[2] = target: paired immunoglobulin-like receptor B (PirB), expressed on CHO cells (mouse) (UniProt P97484); remark: listed apart in the source
[3] = target: His6-tagged recombinant PirB (Abcam #ab276923) (mouse) (UniProt P97484); experiment: atomic force microscopy (single-molecule force spectroscopy); His6-PirB held on Ni2+-NTA gold-coated model surfaces; AFM tips functionalised with T3SA- virions or σ3 through a PEG linker; virus buffer; koff from Bell-Evans fit of dynamic force spectroscopy, kon from binding probability against contact time (pseudo-first-order), KD calculated from both

“reovirus strain T3SA+ virions (from UniProt P03528 1-455; P07939 1-365) (complex)” gave a decrease in infection of primary murine cortical neurons (endogenous PirB) by T3SA+ (100 PFU/cell) after incubation with 5 μg/ml PirB-specific mAb 6C1, IFA [1] of 50% and a tyrosine phosphorylation of immunoprecipitated myc-tagged PirB in CHO cells after T3SA+ adsorption (immunoblot with pTyr-specific mAb cocktail) [2] of over 3 fold.

In the case of “reovirus strain T3SA- virions (from UniProt P03528 1-455; P07939 1-365) (complex)”, the Kd [3] is reported as 1.94 nM, the koff [3] is reported as 0.2 s⁻¹ and the kon [3] is reported as 1.03e+08 M⁻¹ s⁻¹.
